Data on 1 substance can be found in PMC5700950.

The assay deals with C3d, the covalently bound activation product of complement C3, in mouse myocardium (mouse (endogenous in C57BL/6 heart)) (UniProt P01027). Kind of assay: ex vivo organ biodistribution (gamma counting); organs removed after imaging, weighed and gamma counted; heart to blood ratio of injected dose per gram.
Chain of UniProt P01027 (P01027 1002-1303): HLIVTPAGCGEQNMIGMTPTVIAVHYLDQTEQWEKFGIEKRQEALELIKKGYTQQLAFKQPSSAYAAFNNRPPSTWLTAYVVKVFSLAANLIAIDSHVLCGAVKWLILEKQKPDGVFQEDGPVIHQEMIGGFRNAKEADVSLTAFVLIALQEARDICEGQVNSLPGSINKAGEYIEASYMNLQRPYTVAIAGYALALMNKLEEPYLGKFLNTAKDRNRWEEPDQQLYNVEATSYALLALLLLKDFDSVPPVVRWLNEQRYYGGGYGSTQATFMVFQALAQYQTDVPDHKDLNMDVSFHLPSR

Turning to “99mTechnecium-labelled recombinant complement receptor 2 (SCR1 and SCR2 of human CR2) (domain or fragment)”, the heart to blood ratio of %ID/g (heart to blood ratio of %ID/g) amounted to 1.17.
